Sequences and labels used below:
B1: Tah1 (TPR-containing protein associated with Hsp90) (natural protein)
chain: MSQFEKQKEQGNSLFKQGLYREAVHCYDQLITAQPQNPVGYSNKAMALIKLGEYTQAIQMCQQGLRYTSTAEHVAIRSKLQYRLELAQGAVGSVQIPVVEVDELPEGYDRS

Common to all, as to assay: ITC
On the technique in general: In ITC the heat of successive injections is recorded.

In experiment [1] the target is B1.
The target in a further experiment is human Hsp90α (human, UniProt P07900 1-732).
Experiment [2] addresses human Hsp90β (His-tagged) (human, UniProt P08238 1-724).
The target in experiment [3] is yeast Ssa1 (Hsp70, His-tagged) (yeast, UniProt P10591 1-642).
Chain of yeast Ssa1 (Hsp70, His-tagged) (P10591 whole entry): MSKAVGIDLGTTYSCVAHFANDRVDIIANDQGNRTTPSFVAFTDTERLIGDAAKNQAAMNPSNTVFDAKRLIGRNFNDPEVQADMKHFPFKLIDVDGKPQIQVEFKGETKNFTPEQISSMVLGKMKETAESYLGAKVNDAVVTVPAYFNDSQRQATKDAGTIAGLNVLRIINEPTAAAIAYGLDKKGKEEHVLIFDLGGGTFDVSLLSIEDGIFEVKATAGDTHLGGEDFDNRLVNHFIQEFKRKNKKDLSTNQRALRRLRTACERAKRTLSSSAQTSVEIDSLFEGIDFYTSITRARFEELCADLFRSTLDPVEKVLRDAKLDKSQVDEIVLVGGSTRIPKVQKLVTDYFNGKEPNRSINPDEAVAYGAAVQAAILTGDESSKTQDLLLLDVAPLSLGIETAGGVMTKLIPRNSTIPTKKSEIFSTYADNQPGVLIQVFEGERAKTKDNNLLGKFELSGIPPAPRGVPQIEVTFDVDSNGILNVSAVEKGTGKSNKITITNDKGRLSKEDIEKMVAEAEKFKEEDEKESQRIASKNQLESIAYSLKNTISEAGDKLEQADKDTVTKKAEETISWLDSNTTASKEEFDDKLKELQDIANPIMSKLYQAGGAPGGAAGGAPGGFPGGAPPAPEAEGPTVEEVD

Usually Kd stands for the equilibrium constant for the complex coming apart. Broadly, the stoichiometry N is a count of units in the complex or per binding partner.

Chain of human Hsp90β (His-tagged) (P08238 whole entry): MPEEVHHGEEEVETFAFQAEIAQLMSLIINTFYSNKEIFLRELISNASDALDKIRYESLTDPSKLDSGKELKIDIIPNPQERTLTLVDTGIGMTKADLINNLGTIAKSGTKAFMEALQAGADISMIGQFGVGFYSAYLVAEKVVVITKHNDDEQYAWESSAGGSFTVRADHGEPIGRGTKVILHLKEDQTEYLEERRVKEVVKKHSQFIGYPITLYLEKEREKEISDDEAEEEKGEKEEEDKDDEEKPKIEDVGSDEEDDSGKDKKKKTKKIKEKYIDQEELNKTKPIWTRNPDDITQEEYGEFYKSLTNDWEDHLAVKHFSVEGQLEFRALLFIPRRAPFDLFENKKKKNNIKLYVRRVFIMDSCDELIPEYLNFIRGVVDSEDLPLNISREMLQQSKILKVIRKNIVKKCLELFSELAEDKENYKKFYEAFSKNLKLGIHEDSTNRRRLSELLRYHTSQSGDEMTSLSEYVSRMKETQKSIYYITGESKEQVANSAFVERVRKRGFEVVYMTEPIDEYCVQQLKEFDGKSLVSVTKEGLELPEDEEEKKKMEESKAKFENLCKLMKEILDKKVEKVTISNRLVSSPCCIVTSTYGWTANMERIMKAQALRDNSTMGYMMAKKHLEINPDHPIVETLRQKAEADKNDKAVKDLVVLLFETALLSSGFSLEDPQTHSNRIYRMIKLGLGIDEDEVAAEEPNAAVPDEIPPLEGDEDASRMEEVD

As for TEMEEVD [TEMEEVD heptapeptide (C-terminal end of yeast Hsp90)], in experiment [1], the affinity, expressed as Kd, was 0.95 ± 0.04 µM and the “stoichiometry N” value came to 1.2.
On the same counts, the results for AEGPTVEEVD [AEGPTVEEVD decapeptide (C-terminal end of Ssa1, wild-type sequence)] are 28.9 ± 3.1 µM and 1.2.
B1: the values for the Kd (with human Hsp90α; in experiment [2]; in experiment [3]) were 0.33 ± 0.03 µM, 0.34 ± 0.07 µM and 16 ± 2.5 µM, respectively. In addition, the figures for the “stoichiometry N” value (with human Hsp90α; in experiment [2]) were 1.1 and 0.84, respectively.
On to PTVEEVD [PTVEEVD heptapeptide (C-terminal end of Ssa1)], for which, in experiment [1], the Kd was found to be 10.6 ± 1.4 µM and the “stoichiometry N” value stood at 1.
Take DDTSRMEEVD [DDTSRMEEVD decapeptide (C-terminal end of human Hsp90α)]: in experiment [1], the Kd was found to be 0.9 ± 0.06 µM and the “stoichiometry N” value was 1.1.
On to MEEVD [MEEVD pentapeptide (C-terminal end of yeast Hsp90)], for which the “stoichiometry N” value in experiment [1] was determined as 1.1.
In turn, VEEVD [VEEVD pentapeptide (C-terminal end of Ssa1)] came in with a Kd in experiment [1] of 48.8 ± 5.5 µM.
On to EDASRMEEVD [EDASRMEEVD decapeptide (C-terminal end of human Hsp90β)], for which, in experiment [1], the Kd came out at 1 ± 0.19 µM and the “stoichiometry N” value is 0.81.
